From US20180127478A1

Target: GH receptor (on Nb2 cells)
Assay: cell-based or functional assay

commercial recombinant hGH (Somatropin, United States Pharmacopeia) (from UniProt P01241 27-217) (ligand)
Nb2 cell proliferation, EC50: 0.166 nM
